The target of the experiment is SARS-CoV-2-S2 ECD-his (Acro, S2N-C52H5) (SARS-CoV-2, UniProt P0DTC2 686-1213). The experiment can be described thus: ELISA.

B1: 抗体CT150 (antibody, V domains shown)
VH: QEQLVESGGGVVQPGRSLRLSCAASGFTFSSYAMHWVRQAPGEGLEWVALISYDGDNKYYADSVKGRFTISRDNSKTTLFLQMNSLRAEDTAVYYCARDRGSYFYGVDVWGQGATVTVSS
VL: DIQLTQSPSFLSASVGDRVTITCRASQDINSYLAWYQQKPGKAPKLLIYAASTLQSGVPSRFSGSGSGTEFTLTISSLQPEDFATYYCQQLNSYPIFTFGPGTKVDIK
Consider B1, for which the EC50 stood at 8.18 ng/mL.

Usually EC50 stands for the concentration that produces a half-maximal response.

These data come from patent CN114437205A (DOMA MEDICINE TECH SUZHOU LIMITED COMPANY, dated 2022).
